Experimental findings from patent US20130177579A1 (BIOALLIANCE C V, published 2013) are described below.

Some results are limits rather than exact numbers.

The target of assay [1] is human transferrin receptor expressed by nonhematopoietic cancer cells (human) (UniProt P02786). The experiment in a line: FACS, SK-OV-3 cells, 1/5X. On the technique in general: A flow cytometer gives signals particle by particle.
Assay [2] deals with T1, human transferrin receptor expressed by normal human cells (RBC, PMN, lymphocytes, monocytes, platelets, … (human, UniProt P02786 1-760)).
T1 construct: The assay is whole-cell FACS on normal donor cells; also called TfR on normal cells
T1 sequence (P02786 whole entry G142S): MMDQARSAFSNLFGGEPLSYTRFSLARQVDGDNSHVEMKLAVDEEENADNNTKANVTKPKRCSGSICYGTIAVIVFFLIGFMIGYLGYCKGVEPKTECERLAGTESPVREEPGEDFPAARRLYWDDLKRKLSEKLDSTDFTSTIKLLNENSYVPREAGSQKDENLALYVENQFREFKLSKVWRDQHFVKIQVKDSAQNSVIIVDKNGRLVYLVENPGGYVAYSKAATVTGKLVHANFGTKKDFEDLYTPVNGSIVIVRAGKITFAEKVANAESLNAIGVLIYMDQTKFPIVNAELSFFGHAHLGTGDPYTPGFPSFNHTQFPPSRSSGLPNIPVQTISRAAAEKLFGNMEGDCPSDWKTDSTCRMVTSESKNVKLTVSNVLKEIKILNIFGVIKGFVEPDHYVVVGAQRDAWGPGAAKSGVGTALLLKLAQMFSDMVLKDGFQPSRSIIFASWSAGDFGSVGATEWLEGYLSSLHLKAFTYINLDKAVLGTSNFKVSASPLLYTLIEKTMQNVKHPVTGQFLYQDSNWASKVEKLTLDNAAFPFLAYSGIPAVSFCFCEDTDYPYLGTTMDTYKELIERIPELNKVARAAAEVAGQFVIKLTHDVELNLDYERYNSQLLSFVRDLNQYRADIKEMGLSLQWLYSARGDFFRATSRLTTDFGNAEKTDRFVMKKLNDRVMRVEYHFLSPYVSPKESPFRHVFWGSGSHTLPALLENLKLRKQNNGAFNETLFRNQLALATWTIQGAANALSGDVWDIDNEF
The experiment in a line: FACS, platelets, donor D016, 1x. The procedure: (§1) The hyper-immuned serum (Hyp-serum) or the corresponding cell marker antibodies for certain cell types were included as positive controls.
(§2) 1×10⁵ cells were seeded in each well of a v-bottomed 96-well plate and incubated with 50 μl of hybridoma culture supernatant at 1× and 10× dilution, or isotype control antibody mouse IgM, κ (BD™, Cat. No. 557275) at concentration of 1 μg/ml. A 300× dilution of human cell hyper-immune serum was used as binding positive control for all cell types. PE-conjugated anti-human CD41a (Southern Biotech™, Cat. No. 9391-09) was used as a positive control for staining human platelets. Anti-sialyl Lewis x antibody (Millipore™, Cat. No. MAB2096) was used as a positive control for staining human PMN. Anti-human CD31 (Hycult™, Cat. No. HM2039) was used as a positive control for staining HUVEC. After 30 minutes incubation at 4° C., cells were washed twice with 200 μl FACS buffer (1×PBS containing 1% FBS), stained with 50 μl of 1 μg/ml goat F(ab′)2-anti-mouse IgG(H+L)-PE (Southern Biotech™, Cat. No. 1032-09) or 1 μg/ml goat F(ab′)2-anti-mouse IgM(H+L)-PE (Southern Biotech™, Cat. No. 1022-09) in FACS buffer. After 30 minutes of incubation at 4° C., cells were washed twice with FACS buffer and analyzed by flow cytometry (BD LSR, BD Life Sciences).

For assay [3], the target named is human transferrin receptor expressed by nonhematopoietic cancer cells (human) (UniProt P02786). Put plainly: FACS, DU145 cells, 1/5X.
Assay [4] addresses T1, human transferrin receptor expressed by …. The experiment in a line: FACS, monocytes, donor D014, 1/10x. The procedure: (§3) Preparation of PBMC and PMN: The whole blood was diluted with an equal volume of PBS and mixed with 1/10 volume of 15% Dextran solution. […] After centrifugation at 2200 rpm for 15 min (rotor: SORVALL, PN11788 and centrifuge: SORVALL, RT7), PBMC concentrated in the interface, were collected and washed with large volumes of FACS buffer (2% FBS in PBS) for future use. The PMN-rich pellet was collected, from which residual RBC was removed by hypotonic lysis in 0.2% NaCl.
as §2

For assay [5] the target is unchanged. The experiment in a line: FACS, monocytes, donor D014, 1x. As to the method:
as §1, §2

Assay [6] concerns the target human transferrin receptor expressed by nonhematopoietic cancer cells (human) (UniProt P02786). Put plainly: FACS, DLD-1 cells, 1X.
Assay [7] has as its target T1, human transferrin receptor expressed by …. The experiment in a line: FACS, lymphocytes, donor D102, 1x. As to the method:
as §3, §2

The target is the same in assay [8]. The experiment in a line: FACS, RBC, donor D014, 1x. The procedure: as §1, §2
The target is the same in assay [9]. Put plainly: FACS, PMN, donor D016, 1x. As to the method: as §3, §2
The target of assay [10] is human transferrin receptor expressed by nonhematopoietic cancer cells (human) (UniProt P02786). The experiment in a line: FACS, KLE cells, 1X.
Assay [11] concerns the target T2, human transferrin receptor expressed by Jurkat cells (human, UniProt P02786 1-760).
T2 construct: Endogenous receptor on Jurkat cells; MEM189 was the positive control; also called TfR on T leukemia cell line Jurkat
The experiment in a line: FACS, Jurkat cells, 1/10X.

The target of assay [12] is human transferrin receptor expressed by nonhematopoietic cancer cells (human) (UniProt P02786). Put plainly: FACS, H358 cells, 1/10X.
For assay [13] the target is unchanged. The experiment in a line: FACS, MDA-MB-453 cells, 1X.
The target in assay [14] is T1, human transferrin receptor expressed by …. Put plainly: FACS, platelets, donor D005, 1/10x. The procedure: as §1, §2
Assay [15] addresses human transferrin receptor expressed by nonhematopoietic cancer cells (human) (UniProt P02786). Put plainly: FACS, Kato III cells, 1X.
In assay [16] the target is T1, human transferrin receptor expressed by …. The experiment in a line: FACS, platelets, donor D102, 1/10x. As to the method: as §1, §2
The target in assay [17] is human transferrin receptor expressed by nonhematopoietic cancer cells (human) (UniProt P02786). Put plainly: FACS, OMC-3 cells, 1X.
For assay [18] the target is unchanged. Put plainly: FACS, MDA-MB-453 cells, 1/5X.
Assay [19] addresses T1, human transferrin receptor expressed by …. Put plainly: FACS, RBC, donor D102, 1/10x. As to the method:
as §1, §2

Assay [20] shares this target. Put plainly: FACS, lymphocytes, donor D102, 1/10x. As to the method: as §3, §2
The target in assay [21] is human transferrin receptor expressed by nonhematopoietic cancer cells (human) (UniProt P02786). Put plainly: FACS, H358 cells, 1X.
Assay [22] concerns the target T1, human transferrin receptor expressed by …. Put plainly: FACS, platelets, donor D016, 1/10x. The procedure: as §1, §2
In assay [23] the target is human transferrin receptor expressed by nonhematopoietic cancer cells (human) (UniProt P02786). The experiment in a line: FACS, COLO205 cells, 1/5X.

T2 sequence (P02786 whole entry G142S): as above
human transferrin receptor expressed by nonhematopoietic cancer cells (human), sequence (P02786 whole entry G142S): as above

B1: antibody 55-31 (antibody, mouse IgM, V domains shown)
VH: QVQLQQPGAELVKPGTSVKLSCKASGYNFTSYWINWVKLRPGQGLEWIGDIYPGSGSTNYNEKFKSKATLTVDTSSSTAYMQLSSLASEDSALYYCARSAYRYDWFAYWGQGTLVTVSA
VL: DIQMTQSPASLSVSVGETVTITCRASENIYSNLAWYQQKQGKSPQLLVYAATNLADGVPSRFSGSGSGTQYSLKINSLQSEDFGSYYCQHFWGTPYTFGGGTKLEIKR
notes: Mouse IgM, kappa from a hybridoma; tested as hybridoma culture supernatant
As for B1, the MFI in assay [1] came out at 1970 MFI; in assay [3], 2280 MFI; in [6], 219 MFI; in assay [10] it was 136 MFI; in assay [12], 295 MFI; in [13] it was 81 MFI. Also, the MFI came out at 140 MFI in assay [15], 214 MFI in assay [17], 65 MFI in assay [18] and 234 MFI in assay [21]. The “% positive cell binding” value in assay [2] is under 1%; in assay [4], under 1%; in assay [5] it was under 1%; in [7], under 1%; in [8] it was 1%; in assay [9], under 1%. For the same molecule, the “% positive cell binding” value was under 1% in [14]; under 1% in assay [16]; under 1% in [19]; 1% in assay [20]; under 1% in [22]. Moreover, the “% of gated cells” value in assay [11] is under 1%.

B2: antibody 122-72 (antibody, V domains shown)
VH: EVQLVESGGGLVQPKGSLKLSCAASGFTFNTYAMNWVRQAPGKGLEWVARIRSKSNNYATYYADSVKDRFTISRDDSQSMLYLQMNNLKTEDTAMYYCVAYGSRNYWGQGTTLTVSS
VL: DIVMTQSPSSLTVTAGEKVTMSCKSSQSLLNSGNQKNYLTWYQQKPGQPPKLLIYWASTRESGVPDRFTGSGSGTDFTLTISSVQAEDLAVYYCQNDYSYPYTFGGGTKLEIKR
notes: Mouse IgM, kappa from a hybridoma; tested as hybridoma culture supernatant; Antibody 60-43 is said to have the same CDRs
As to B2, the MFI was 381 MFI in assay [1]; 13 MFI in assay [3]; 2460 MFI in assay [12]; 6340 MFI in assay [23]; 16 MFI in assay [18]; 942 MFI in assay [21]. Further, the “% positive cell binding” value in assay [2] was under 1%; in assay [4], 1%; in assay [5], under 1%; in [7] it was under 1%; in assay [8], 1%; in assay [9], under 1%. Also, the “% positive cell binding” value is under 1% in [14]; under 1% in [16]; under 1% in [19]; 2% in assay [20]; under 1% in assay [22]. Besides, in assay [11], the “% of gated cells” value is under 1%.

B3: antibody 6-90 (antibody, mouse IgM, V domains shown)
VH: EVELQQFGIEMVKPGASVKISCKASGYIFTDYHMDWVRQSHGKSLEWIGDIDPKYDRVTYNQKFKGKASLTADKSSSTAYMELRSLTSEDTAVYYCAKTGAYGDYLAYWGQGTLVTVSA
VL: DLVMTQTPLSLPVSLGDQASISCRSSQSLVHSDGNTYFYWYLQKPGQSPKLLIYKVSNRFSGVPDRFSAGGSGTYFTLKISRVEAEDLGVYFCSQTTHFPPTFGGGTKLEIKR
notes: as for B1
Regarding B3, the “% positive cell binding” value was under 1% in assay [2]; under 1% in assay [4]; under 1% in [5]; under 1% in assay [7]; 1% in assay [8]; 1% in assay [9]. Further, the “% positive cell binding” value in assay [14] was under 1%; in [16], under 1%; in assay [19] it was under 1%; in assay [20], 2%; in assay [22], under 1%. In addition, the MFI is 3760 MFI in assay [6]; 890 MFI in [10]; 1600 MFI in assay [12]; 147 MFI in assay [13]; 1410 MFI in assay [15]; 3140 MFI in assay [17]. Besides, the MFI in [23] worked out at 6160 MFI; in assay [18], 141 MFI; in assay [21], 823 MFI. The “% of gated cells” value in [11] is under 1%.
